# Results taken from patent publication US20130330359A1 (AbbVie / Abbott, published 2013).
# T1: RGMc antigen: amino acids 33-391 of RGMc followed by human Fc (human, UniProt Q6ZVN8 33-391)
# T1 construct: also called RGMc-huFc; RGMc-Fc; not shown: human Fc
# T1 sequence: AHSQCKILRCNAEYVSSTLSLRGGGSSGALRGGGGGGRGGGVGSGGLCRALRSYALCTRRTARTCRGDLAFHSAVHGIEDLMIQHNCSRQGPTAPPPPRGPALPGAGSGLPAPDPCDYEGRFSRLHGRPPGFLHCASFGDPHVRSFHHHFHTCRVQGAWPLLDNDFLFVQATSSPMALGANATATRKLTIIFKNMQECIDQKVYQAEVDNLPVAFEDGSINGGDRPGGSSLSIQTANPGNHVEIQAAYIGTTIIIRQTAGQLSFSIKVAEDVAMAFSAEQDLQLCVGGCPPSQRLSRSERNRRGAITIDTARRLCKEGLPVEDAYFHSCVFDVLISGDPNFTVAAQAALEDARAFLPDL
# T2: carrier free RGMa (R&D Systems) (UniProt Q96B86 48-422, limits assumed)
# T2 construct: also called RGMa-CF
# T2 sequence (looked up): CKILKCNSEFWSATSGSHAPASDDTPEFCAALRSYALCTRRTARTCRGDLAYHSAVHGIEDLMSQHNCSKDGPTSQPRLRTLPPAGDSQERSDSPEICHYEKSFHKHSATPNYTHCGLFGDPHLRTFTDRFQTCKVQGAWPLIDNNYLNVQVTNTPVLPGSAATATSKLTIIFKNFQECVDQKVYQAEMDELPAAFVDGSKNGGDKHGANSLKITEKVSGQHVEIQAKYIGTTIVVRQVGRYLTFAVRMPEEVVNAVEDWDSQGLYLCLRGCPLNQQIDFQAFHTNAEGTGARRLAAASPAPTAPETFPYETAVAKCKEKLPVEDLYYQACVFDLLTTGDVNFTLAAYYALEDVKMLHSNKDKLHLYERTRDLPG
# T3: carrier free RGMb (R&D Systems) (UniProt Q6NW40 46-413, limits assumed)
# T3 construct: also called RGMb-CF
# T3 sequence (looked up): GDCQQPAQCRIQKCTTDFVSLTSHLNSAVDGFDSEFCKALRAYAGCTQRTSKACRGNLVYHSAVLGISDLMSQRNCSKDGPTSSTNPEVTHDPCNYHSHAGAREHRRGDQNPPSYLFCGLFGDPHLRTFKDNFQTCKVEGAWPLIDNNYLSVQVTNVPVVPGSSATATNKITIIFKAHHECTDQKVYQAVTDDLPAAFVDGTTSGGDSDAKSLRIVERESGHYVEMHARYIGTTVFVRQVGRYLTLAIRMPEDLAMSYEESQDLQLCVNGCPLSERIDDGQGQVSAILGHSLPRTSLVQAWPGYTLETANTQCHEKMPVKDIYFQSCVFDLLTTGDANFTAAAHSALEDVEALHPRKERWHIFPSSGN
# T4: carrier free RGMc (R&D Systems) (human, UniProt Q6ZVN8 36-400)
# T4 construct: also called RGMc-CF
# T4 sequence (looked up): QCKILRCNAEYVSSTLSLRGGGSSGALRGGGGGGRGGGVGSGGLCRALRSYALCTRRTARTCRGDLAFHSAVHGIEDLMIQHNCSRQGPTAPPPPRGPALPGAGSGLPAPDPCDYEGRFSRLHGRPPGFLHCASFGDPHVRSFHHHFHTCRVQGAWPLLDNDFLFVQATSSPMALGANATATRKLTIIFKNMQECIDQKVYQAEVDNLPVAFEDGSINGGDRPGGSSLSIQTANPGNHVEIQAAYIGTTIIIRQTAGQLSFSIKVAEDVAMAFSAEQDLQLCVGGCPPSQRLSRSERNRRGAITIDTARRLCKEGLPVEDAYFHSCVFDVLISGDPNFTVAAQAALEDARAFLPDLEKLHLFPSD
# How the values were obtained:
# [1] = biological target: T1, RGMc antigen: amino acids 33-391 of …; test: chemiluminescence immunoassay: supernatant mAb captured on sheep anti-mouse IgG Fc, RGMc-huFc at 200 ng/mL, acridinium-labeled goat anti-RGMc detection
# Description: Cell supernatant samples were analyzed for anti-RGMc antibodies by Chemiluminescence immunoassay (CIA). Sheep anti-mouse IgG Fc (Jackson Immunoresearch, West Grove, Pa.) was coated on 96 well micro-titer CIA plates (NUNC) at 5 ug/mL. After the capture reagent had been coated on the solid phase, it was removed and any open binding sites on the plates were blocked using a Fish gel/PBS (2% v/v) block solution. The wells were washed with distilled water and cell supernatants were added to the blocked plates and allowed to incubate at room temperature for at least one hour. The anti-mouse IgG Fc captures the anti-RGMc mouse antibody from the supernatant. Following the incubation, the supernatants were washed off using distilled water. A mouse/human IgG chimeric antibody (Abbott Laboratories) diluted in fish gel block to 5 ug/ml was added to each well and incubated for approximately 30 minutes at room temperature to block any captured mAbs that are specific for human IgG Fc portion of the immunogen. Following the incubation, the human IgG blocking solution was washed off using distilled water. RGMc-huFc antigen was then added to the plates at 200 ng/mL in fish gel block and incubated for 30 minutes at room temperature. Following this incubation, the antigen was washed from the plates using distilled water. Acridinium labeled goat anti-RGMc polyclonal antibody (R&D Systems, Minneapolis, Minn.) was diluted to 200 ng/ml in fish gel block, then added to the plates and allowed to incubate for 30 minutes at room temperature. The plates were washed with distilled water then processed on the Microbeta Jet instrument (Perkin Elmer, Waltham, Mass.). The Microbeta Jet adds Architect© Pre-Trigger and Trigger solutions (Abbott Laboratories). The plates are then read for flash chemiluminescence in luminescent counts per second (LCPS). […] The positive control (PC) used in this assay was spent medium from unfused splenocytes harvested from mouse #814 that were cultured for 7 to 10 days at 37° C.
# [2] = biological target: T2, carrier free RGMa (R&D Systems); test: EIA on coated carrier-free RGMa (summary of specificity)
# Description: (§1) Clones were then tested for cross-reactivity with RGMa and RGMb by EIA. Carrier free RGMa, RGMb, or RGMc (R&D Systems) was coated on the solid phase of micro-titer EIA plates at 0.5 ug/mL. After the antigen had been coated on the solid phase, it was removed and any open binding sites on the plates were blocked using fish gel block solution. The wells were washed with distilled water following this incubation. Cell supernatants and control reagents were added to the blocked plates and allowed to incubate at room temperature for at least one hour. The negative control was a purified mouse mAb from a different antigen system. The positive control for RGMa, RGMb, & RGMc was a goat anti-RGMa, RGMb, or RGMc polyclonal antibody (R&D Systems). Following this incubation, the solutions were removed from the plates and they were washed with distilled water. Donkey anti-Goat IgG-HRPO diluted to approximately 200 ng/mL in block solution was added to the plates with the positive control test samples and goat anti-mouse IgG-HRPO (Jackson Immunoresearch) diluted to approximately 200 ng/mL in block solution was added to the plates with the fusion #1 test samples. All plates were allowed to incubate for 30 minutes at room temperature. The plates were washed with distilled water and o-phenylenediamine substrate was used as the chromogen to generate signal. Plates were read at 492 nm and the results were analyzed.
# [3] = biological target: T1, RGMc antigen: amino acids 33-391 of …; test: direct EIA: RGMc-huFc coated at 1.0 ug/mL; supernatant diluted 1:125; goat anti-mouse IgG Fc-HRPO
# Description: (§2) A mouse:human chimeric antibody or RGMc-huFc was coated on the solid phase of micro-titer EIA plates at 1.0 ug/mL. After the antigen had been coated on the solid phase, it was removed and any open binding sites on the plates were blocked using BSA block solution. The wells were washed with distilled water. Cell supernatants and control reagents were added to the blocked plates and allowed to incubate at room temperature for at least one hour. The negative control was a purified mAb from a different antigen system. The positive control for human IgG was a purified anti-hu IgG mAb developed against another antigen containing human IgG Fc carrier protein. The RGMc positive control is Novus mab 1C12. Following this incubation, the solutions were removed from the plates and they were washed with distilled water. Goat anti-mouse IgG Fc-HRPO (Jackson Immunoresearch) diluted to approximately 200 ng/mL in block solution was added to the plates and allowed to incubate for 30 minutes at room temperature. The plates were washed with distilled water and o-phenylenediamine substrate (Abbott Laboratories) was used as the chromogen to generate signal. Plates were read at 492 nm and the results were analyzed.
# [4] = biological target: T3, carrier free RGMb (R&D Systems); test: EIA on coated carrier-free RGMb (summary of specificity)
# Description: as §1
# [5] = biological target: T5, mouse:human chimeric antibody (used as human IgG / human IgG Fc antigen); test: direct EIA: mouse:human chimeric antibody coated at 1.0 ug/mL; supernatant diluted 1:125; goat anti-mouse IgG Fc-HRPO
# T5 construct: also called Hu IgG; human IgG Fc portion
# Description: as §2
# [6] = biological target: T1, RGMc antigen: amino acids 33-391 of …; test: … two-step sandwich chemiluminescent assay; 1A-2493-121 on microparticles as capture, goat polyclonal AF3720 CPSP conjugate as detection
# Description: The Architect assay is a two-step assay format, wherein a 30 μl sample is mixed with 50 μl of line diluent. […] At the end of 18 minutes, unbound sample is washed away. 50 μl of R&D System Goat polyclonal AF3720 CPSP conjugate at 800 ng/mL was added to the mixture, vortexed, and incubated for 4 minutes. […] The relative light units are then measured.
# [7] = biological target: T4, carrier free RGMc (R&D Systems); test: … two-step sandwich chemiluminescent assay; 1A-2493-121 on microparticles as capture, goat polyclonal AF3720 conjugate as detection
LCPS [1] [LCPS],binding result [2],absorbance at 492 nm [3],binding result [4],absorbance at 492 nm [5],binding result [6],binding result [7],Binder
4390,no binding,1.25,no binding,0.07,,,"1A-2151-163 (antibody, V domains shown) VH: EVQLQQSGPELLKPGASVKISCKASGYSFTDNTIHWVKQSQRKSLEWIGGISPRYGDIRYNVQFKDKATLTVDKSSSTAYMELRSLTSEDSAVYYCTRWDDGYYEDYAMDYWGQGTSVTVSS VL: DILLTQSPAILSVSPGERVSFSCRASQSIGTSLHWYQQRRNGSPRLLIKYASESISGIPSRFSGSGSGTDFTLSINTVESEDIADYYCQQSNSWPYTFGGGTKLEIKR"
,,,,,binds,binds,"anti-RGMc 1A-2493-121 monoclonal antibody (antibody, V domains shown) VH: DVQLQASGPDLVKPSQSLSLTCTVTGYSITSGYSWHWIRQFPGNKLEWMAYIHYTGDSNYNPSLKSRISITRDTSKNQFFLQLTSVTTEDTATYYCALFGLSGYWGQGTLVTVSA VL: DVLMTQTPLSLPVSLGDQASISCRSSQNIIHSNGNTYLDWYLQKPGQSPKVLIYKVSNRFSGVPDRFSGSGSGTDFILKISRVEAEDLGVYYCLQGSHVPWTFGGGTKLEIKR"
2640,no binding,,no binding,,,,"1A-2258-107 (antibody, V domains shown) VH: EVQLVESGGGLVKPGGSLKLSCAASGFTFSDYFMFWVRQTPEKRLEWVATISDGGSYTYYSDSVKGRFTISRDNAKNNLFLQMSSLKSEDTAMYYCARDKYGDYDAMDYWGQGTSVTVSS VL: DVVLTQSPASLAVSLGQRATISCKASQSVDYDSDSYMNWYQQKPGQPPKLLIYAASNLESGIPARFSGGGSGTDFTLNIHPVEEEDAATYYCQQSNEDPPTFGGGTKLEIKR"
